Measurements: the supplement of paper PMC10567573

B1: DYRK1B (parent)
chain: RFQDLVLRMLEYEPAARISPLGAL
B2: HSP90AB1 (parent)
chain: EADKNDKAVKDLVVLLFETALLSS

Variants of: B1
Experiment: protein stability index of a GFP-peptide fusion (GPS, HEK-293T) (PSI 1-6); higher = more stable
Conditions: c terminus: a fixed tail appended
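Also: lentivirally expressed fusions sorted by FACS into six bins by GFP to DsRed ratio, PSI derived from sequencing read proportions per bin multiplied by bin number.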

Protein stability index, by site and new letter:
V6: Y 2.18, A 2.26, Q 2.12, W 1.03, I 2.23, P 2.58, T 2.07, K 1.51, R 2, N 2.78, H 2.01, S 1.91
A16: T 2.28, N 3.65, F 1.02, P 1.44, E 1.36, C 3.04, K 2.35, M 1.85
P14: L 5.01, F 2.87, N 1.45, E 2.21, I 1.72
I18: D 1.65, A 1.41, E 2.06, M 2.17, N 1.23, G 1.27, F 2.3, P 1.98, H 1.23, L 2.33

Variants of: B2
Experiment: as above
Conditions: c terminus: a fixed tail appended

Protein stability index: each site, then its substitutions
L21: R 2.11, Y 1.48, I 2.17, C 2.14, N 3.31, T 2.79, H 2.27, G 2.58, M 1.86, K 2.35, P 2.88, A 2.49, F 2.13, V 1.94, D 2.57, S 2.28
F17: M 2.1, S 3.89, L 1.76, K 3.76, I 1.84, Q 3.82, V 1.92, N 3.94, W 2.26, P 4.3, T 3.67, R 3.31, Y 2.13
S24: R 1.65, C 1.4, M 2.16, E 1.93, Y 2.04, L 2.06, P 2.72, V 2.29, N 2.13, T 1.91, D 1.93, H 1.89, I 1.51, Q 1.67, W 1.75, F 2.11
S23: T 2.15, R 2.54, K 1.91, W 2.27, C 2.22, H 2.26, D 2.26, N 1.96, L 3.33, G 1.95, M 2.65, P 1.96, Y 1.63, F 1.68, V 2.41, Q 1.64, I 3.41, A 2.21
T19: G 2.49, S 2.15, Q 1.75, N 2.15, F 2.57, I 2.92, C 2.54, L 1.98, P 1.83, H 2.2, R 1.99, V 2.11, K 2.2, W 2.52, M 2.29, D 2.32, Y 2.02, A 1.42, E 2.71
E18: L 2.61, Q 1.77, S 2.16, N 1.7, M 3, G 4.31, H 2.07, W 2.79, K 2.42, C 1.82, V 4.33, T 2.01, I 3.81, F 3.16, P 2.73, D 1.33, A 2.2, R 2.21
A20: N 2.16, Q 2.44, P 2.27, D 2.85, S 2.8, C 1.47, M 1.97, V 1.88, F 2.42, W 2.07, R 2.42, E 2.43, L 1.44, I 2.19, Y 1.44, T 1.99, G 2.46
L22: H 2.18, W 1.64, D 3.01, V 2.17, E 2.95, R 2.09, T 2.29, F 1.8, N 2.68, A 2.85, Y 1.5, G 2.77, S 2.7, Q 2.29, M 1.86
